This note sets out measurements from PMC8858996 (iScience, 2022).

For data set [1], the target named is EphA2 WT tagged at the C-terminus with mTURQ or EYFP (UniProt P29317).
For a further data set, the target named is CGA-WLA-YR dimer (N-ter). Briefly: ITC. For orientation: ITC needs no label: the signal is the heat of the interaction.
A further data set concerns the target dimer (4). Briefly: ITC.
Another data set concerns the target CGA-WLA-YRPK dimer (5). As to the kind of experiment: ITC.
The data set “FRET or BRET” deals with the molecule itself. Briefly: FRET or BRET. For orientation: BRET reads energy transfer from a luciferase to a nearby fluorophore.

In data set [1], “ephrinA1-Fc (ephrinA1 extracellular region fused to the dimeric Fc portion of an antibody) (Fc fusion)” yielded an EC50 of EphA2 autophosphorylation on Y588, endogenous EphA2 in PC3 cells, 15 min of 3.8 nM.

Broadly, the stoichiometry N is a count of units in the complex or per binding partner. Molecule “human EphA2 ligand-binding domain (residues 28-200) (from UniProt P29317 28-200) (domain or fragment)” returned a stoichiometry N with CGA-WLA-YR dimer (N-ter) of 2. By Kd is commonly meant a measure of binding affinity in units of concentration. Read a high Kd as a looser complex. As for “human EphA2 LBD (residues 28–200) (from UniProt P29317 28-200) (domain or fragment)”, in the data set with dimer (4), the Kd is 104 nM and the stoichiometry N (EphA2 LBD per peptide) was found to be 2. In addition, the Kd with CGA-WLA-YRPK dimer (5) was determined as 21 nM.

B1: EphA2 L223R/L254R/V255R tagged at the C-terminus with mTURQ or EYFP (receptor)
chain: AQGKEVVLLDFAAAGGELGWLTHPYGKGWDLMQNIMNDMPIYMYSVCNVMSGDQDNWLRTNWVYRGEAERIFIELKFTVRDCNSFPGGASSCKETFNLYYAESDLDYGTNFQKRLFTKIDTIAPDEITVSSDFEARHVKLNVEERSVGPLTRKGFYLAFQDIGACVALLSVRVYYKKCPELLQGLAHFPETIAGSDAPSRATVAGTCVDHAVVPPGGEEPRMHCAVDGEWRRPIGQCLCQAGYEKVEDACQACSPGFFKFEASESPCLECPEHTLPSPEGATSCECEEGFFRAPQDPASMPCTRPPSAPHYLTAVGMGAKVELRWTPPQDSGGREDIVYSVTCEQCWPESGECGPCEASVRYSEPPHGLTRTSVTVSDLEPHMNYTFTVEARNGVSGLVTSRSFRTASVSINQTEPPKVRLEGRSTTSLSVSWSIPPPQQSRVWKYEVTYRKKGDSNSYNVRRTEGFSVTLDDLAPDTTYLVQVQALTQEGQGAGSKVHEFQTLSPEGSGNLAVIGGVAVGVVLLLVLAGVGFFIHRRRKNQRARQSPEDVYFSKSEQLKPLKTYVDPHTYEDPNQAVLKFTTEIHPSCVTRQKVIGAGEFGEVYKGMLKTSSGKKEVPVAIKTLKAGYTEKQRVDFLGEAGIMGQFSHHNIIRLEGVISKYKPMMIITEYMENGALDKFLREKDGEFSVLQLVGMLRGIAAGMKYLANMNYVHRDLAARNILVNSNLVCKVSDFGLSRVLEDDPEATYTTSGGKIPIRWTAPEAISYRKFTSASDVWSFGIVMWEVMTYGERPYWELSNHEVMKAINDGFRLPTPMDCPSAIYQLMMQCWQQERARRPKFADIVSILDKLIRAPDSLKTLADFDPRVSIRLPSTSGSEGVPFRTVSEWLESIKMQQYTEHFMAAGYTAIEKVVQMTNDDIKRIGVRLPGHQKRIAYSLLGLKDQVNTVGIPI
B1: the “stoichiometry N” value in “FRET or BRET” stood at 2.
